Results taken from publication PMC7432810.

What was measured:
[1] = molecular target: Cx36-ECFP (Rattus norvegicus) (UniProt O70610); assay: FRET or BRET; acceptor photobleaching FRET in double transfected Neuro 2a cells fixed with 4% paraformaldehyde; ECFP donor, DsRed acceptor; threshold 1.7% (10 nm); cells untreated or treated before with 2 uM ionomycin or 24 uM BAPTA-AM (10 min), 5 ug/mL BFA (6 h) or 50 uM Dynasore (1 h)
[2] = molecular target: Cx36-DsRed (Rattus norvegicus) (UniProt O70610); assay: as above

Cav-1-DsRed (natural protein) gave an FRET efficiency [1] of 5.73, an FRET efficiency (cells treated with 2 uM ionomycin) [1] of 7.33 and an FRET efficiency (cells treated with BFA for 6 h) [1] of 3.76. For the same substance, the FRET efficiency (no treatment, control of the Dynasore experiment) [1] was 4.
Cav-1-ECFP (natural protein) was tested, and the FRET efficiency [2] was 5.94.
